# Entries after “also recorded” stand apart in the source; their conditions may differ.
# How the values were obtained:
# LDL = experiment: Co-incubation with LDL, SDS-PAGE separation, Coomassie brilliant blue staining; format: binding; settings: 12 h
# Method: Experimental materials: sDSS1 protein, sDSS1 mutant protein 1 (sDSS1-M1, SEQ ID NO: 15), sDSS1 mutant protein 2 (sDSS1-M2, SEQ ID NO: 16), oxidized low density lipoprotein (oxLDL) (Solarbio, Article No.: H7980); low density lipoprotein (LDL) (Solarbio, Article No.: H7960).
# Experimental method: 2 μg of oxLDL or LDL was mixed with 6 μg of sDSS1 protein or 10 μg of sDSS1 protein in a 1.5 ml EP tube in the presence of 20 mM sodium acetate/acetic acid buffer (pH 4.5) or 20 mM phosphate buffer (pH 7.2) respectively, and incubated at 37° C. for 12 h. A loading buffer was added in the incubated product and evenly mixed, and the obtained mixture was denatured at 100° C. for 10 min to prepare a loading sample. The resulting sample was subjected to electrophoretic separation via polyacrylamide gel electrophoresis (SDS-PAGE). After separation, the SDS-PAGE gel was stained with Coomassie brilliant blue to display protein strips. The sDSS1-M1 or sDSS1-M2 protein was respectively mixed and incubated with oxLDL, and treated in the same way. 15 μL of the sample was used for SDS-PAGE electrophoresis separation.
# ApoE−/− mice = experiment: Plasma oxLDL and LDL levels (ELISA) in ApoE−/− mice after 7 days of administration; format: in vivo
# From the text: ApoE−/− mice were divided into two groups, the control group and the sDSS1 protein administration group. […] At the end of the administration, the plasma levels of oxLDL and LDL in mice were detected.
# Experimental animal: ApoE−/− mice, 8-10 weeks old, male, were purchased from Nanjing Biomedical Research Institute of Nanjing University. The animals were housed in an animal room for one week before the experiment.
# Experimental materials: sDSS1 protein, oxLDL ELISA kit (Wuhan Elabscience Biotechnology Co., Ltd., Article No.: E-EL-M0066c), LDL ELISA kit (Wuhan Elabscience Biotechnology Co., Ltd., product No.: E-EL-M1363c)
# Experimental method: the ApoE−/− mice were randomly divided into two groups, a control group and a sDSS1 protein group. For 7 days, 200 μl of normal saline was intraperitoneally injected in control group once a day, and 10 mg/kg of the sDSS1 protein was intraperitoneally injected in sDSS1 protein group once a day. After 7 days of administration, the bloods of mice were collected, and plasma was separated with EDTA-Na as an anticoagulant. The plasma oxLDL level was measured by using the oxLDL ELISA kit, and the plasma LDL level was measured by the LDL ELISA kit.
# 100 μl of oxLDL standards or samples were added in each well, and incubated for 90 min at 37° C.; the liquid in the well was discarded, 100 μl of biotinylated oxLDL antibody working liquid was added, and incubated at 37° C. for 60 min; washing 3 times; 100 μl of enzyme binding working solution was added, and incubated at 37° C. for 30 min; washing 5 times; 90 μl of substrate solution was added, and incubated at 37° C. for 15 min; 50 μl of termination solution was added, and the OD value was immediately measured at 450 nm wavelength; a standard curve was established with standard products, and the oxLDL level of each sample was calculated according to the standard curve.
# 100 μl of LDL standards or samples were added into each well, and incubated for 90 min at 37° C.; the liquid in the well was discarded, 100 μl of biotinylated LDL antibody working liquid was added, and incubated at 37° C. for 60 min; washing 3 times; 100 μl of enzyme binding working liquid was added, and incubated at 37° C. for 30 min; washing 5 times; 90 μl of substrate solution was added, and incubated at 37° C. for 15 min; 50 μl of termination solution was added, and the OD value was immediately measured at 450 nm wavelength; a standard curve was established by using standard products, and the LDL level of each sample was calculated according to the standard curve. The oxLDL/LDL ratio=oxLDL concentration (ng/ml)÷LDL concentration (ng/ml) 5.2 Experimental Results
# Hep G2 cells = experiment: Uptake of DiL-LDL by Hep G2 cells (fluorescence microscope, flow cytometry); format: cell-based, human; settings: 10 h
# Method: Materials: sDSS1 protein, DiL-oxLDL, DiL-LDL (ThermoFisher, L3482), human hepatoma cell Hep G2 (Cell Bank of Typical Culture Preservation Committee of Chinese Academy of Sciences, Catalog Number: SCSP-510).
# Experimental method: (1) When detecting the phagocytosis of oxLDL by Hep G2 cells, Hep G2 cells were inoculated into a 6-well plate with 250000 cells per well. After 12 h, all the cells were adhered. The old culture medium was discarded. 1.5 ml 10 μg/ml DiL-oxLDL was added, or 1.5 ml 10 μg/ml DiL-oxLDL was added together with 5 μg/ml and 50 μg/ml of the sDSS1 protein. After incubation for 9 h in the incubator, the fluorescence signal in the cells was observed by a fluorescence microscope. The cells were digested by trypsin to form single cells for detecting fluorescence intensity via flow cytometry. (2) When detecting the phagocytosis of LDL by Hep G2 cells, Hep G2 cells were inoculated into a 6-well plate with 250000 cells per well. After 12 h, all the cells were adhered. The old culture medium was discarded. 1.5 ml 10 μg/ml DiL-LDL was added, or 1.5 ml 10 μg/ml DiL-LDL was added together with 5 μg/ml and 50 μg/ml of the sDSS1 protein. After incubation for 10 h in the incubator, the fluorescence signal in the cells was observed by fluorescence microscope. The cells were digested by trypsin to form single cells for detecting fluorescence intensity via flow cytometry.
# [1] = 50 μg/ml sDSS1 protein, 10 μg/ml DiL-LDL
molecule,measurement,setting,value
"sDSS1 protein: sDSS1 protein produced by the company itself, purity more than 95%; sequence of human sDSS1 protein is SEQ ID NO:1 (protein, listed as Homo sapiens) MSEKKQPVDLGLLEEDDEFEEFPAEDWAGLDEDEDAHVWEDNWDDDNVEDDFSNQLRATVLLMILVCETPYGCYVLHQKGRMCSAFLCC",Interaction with LDL (complex on SDS-PAGE gel),"LDL; phosphate buffer pH 7.2, 37° C.",interacted with the sDSS1 protein; also recorded: resulted in interactions
same,Interaction with LDL (complex on SDS-PAGE gel),"LDL; sodium acetate/acetic acid buffer pH 4.5, 37° C.",interacted with the sDSS1 protein; also recorded: resulted in interactions
same,Plasma LDL level vs control group,ApoE−/− mice; sDSS1 10 mg/kg (10 mpk) intraperitoneal once a day,no significant difference; also recorded: did not cause significant changes
same,Plasma oxLDL/LDL ratio vs control group,ApoE−/− mice; sDSS1 10 mg/kg intraperitoneal once a day,significantly lower
same,Plasma LDL level vs control group,ApoE−/− mice; sDSS1 30 mg/kg (30 mpk) intraperitoneal once a day,did not cause significant changes
same,Plasma oxLDL level vs control group,"ApoE−/− mice; sDSS1 30 mg/kg (30 mpk, high dose) intraperitoneal once a day",significantly reduced
same,Plasma oxLDL/LDL ratio vs control group,ApoE−/− mice; sDSS1 high dose (30 mpk) intraperitoneal once a day,significantly lower
same,"Intensity of Dil fluorescence in Hep G2 cells, DiL-LDL (flow cytometry)","Hep G2 cells; 5 μg/ml sDSS1, 10 μg/ml DiL-LDL",basically consistent
same,"Intensity of Dil fluorescence in Hep G2 cells, DiL-LDL (flow cytometry)","Hep G2 cells; 5 μg/ml sDSS1, 10 μg/ml DiL-LDL, listed as sDSS1",could not cause significant changes
same,Quantity of Hep G2 cells uptaking DiL-LDL (fluorescence microscope),"Hep G2 cells; 5 μg/ml sDSS1 protein, 10 μg/ml DiL-LDL",not changed significantly
same,Quantity of Hep G2 cells uptaking DiL-LDL (fluorescence microscope),"Hep G2 cells; 5 μg/ml sDSS1 protein, 10 μg/ml DiL-LDL, listed as sDSS1",no significant difference
same,"Intensity of Dil fluorescence in Hep G2 cells, DiL-LDL (flow cytometry)",Hep G2 cells; [1],basically consistent; also recorded: could not cause significant changes
same,Quantity of Hep G2 cells uptaking DiL-LDL (fluorescence microscope),Hep G2 cells; [1],not changed significantly
same,Quantity of Hep G2 cells uptaking DiL-LDL (fluorescence microscope),"Hep G2 cells; 50 μg/ml sDSS1 protein, 10 μg/ml DiL-LDL, listed as sDSS1",no significant difference
